From US8034783B2, “Prodomain modulators of ADAM 10” (Biozyme, Inc., priority 2006, dated 2011)

Key:
[1] = molecular target: T1, human ADAM 9 catalytic/disintegrin domains (Homo sapiens, UniProt Q13443); assay: Inhibition assay with ADAM 9; format: biochemical; details: read-out: inhibition constant, ADAM 9 (human)
T1 construct: human ADAM 9 catalytic/disintegrin domains activity; purchased R & D Systems (Minneapolis, Minn., USA)
T1 sequence (Q13443 206-697 limits assumed): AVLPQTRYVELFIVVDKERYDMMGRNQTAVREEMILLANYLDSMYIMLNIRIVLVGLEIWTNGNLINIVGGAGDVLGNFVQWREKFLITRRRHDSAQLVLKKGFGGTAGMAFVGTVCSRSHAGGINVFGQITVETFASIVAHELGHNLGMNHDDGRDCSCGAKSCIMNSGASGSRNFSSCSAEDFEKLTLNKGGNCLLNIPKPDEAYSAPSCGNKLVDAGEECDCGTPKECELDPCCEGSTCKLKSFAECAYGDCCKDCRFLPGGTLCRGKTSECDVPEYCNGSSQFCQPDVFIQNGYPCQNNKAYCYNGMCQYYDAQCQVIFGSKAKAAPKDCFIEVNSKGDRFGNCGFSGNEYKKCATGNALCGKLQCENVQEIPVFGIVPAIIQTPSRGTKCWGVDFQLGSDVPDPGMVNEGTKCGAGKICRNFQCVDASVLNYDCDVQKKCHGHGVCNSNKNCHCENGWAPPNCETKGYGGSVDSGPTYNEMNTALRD
Protocol: Inhibition assays with ADAM 9. The fluorescent substrate, Dabcyl-PchaGC(Me)HAK(Fam)-NH2 (SEQ ID NO 19) (10 μM), in a buffer containing 25 mM Tris, pH 8.0, 0.0006% Brij-35, was used to measure human ADAM 9 catalytic/disintegrin domains activity. The ADAM 9 was provided as a 0.1 μg/μl stock solution, from which 3 μl was added to start the reaction in the absence or presence of ADAM10 prodomain (78-5000 nM). Fluorescence intensities were measured every 10-20 minutes at excitation and emission wavelengths of 485 and 530 nm respectively.
(§1) Calculation of inhibition constants. The amount of activity was calculated by subtracting the ADAM 10 prodomain control from the ADAM 10 prodomain with enzyme. All inhibition assays were performed at room temperature and the data fit to the following equation using Sigma Plot software:
(§2) [formula] where If is fractional inhibition, I is the inhibitor concentration and Ki is the inhibition constant.

TACE (human) Cat/Dis = molecular target: T2, TACE (human) Cat/Dis (Homo sapiens, UniProt P78536); assay: Inhibition assay with TACE catalytic/disintegrin construct, fluorescent substrate; format: biochemical; details: room temperature; read-out: inhibition constant, TACE (human) Cat/Dis
T2 construct: containing the catalytic/disintegrin domains; purchased R & D Systems (Minneapolis, Minn., USA)
T2 sequence (P78536 215-671 limits assumed): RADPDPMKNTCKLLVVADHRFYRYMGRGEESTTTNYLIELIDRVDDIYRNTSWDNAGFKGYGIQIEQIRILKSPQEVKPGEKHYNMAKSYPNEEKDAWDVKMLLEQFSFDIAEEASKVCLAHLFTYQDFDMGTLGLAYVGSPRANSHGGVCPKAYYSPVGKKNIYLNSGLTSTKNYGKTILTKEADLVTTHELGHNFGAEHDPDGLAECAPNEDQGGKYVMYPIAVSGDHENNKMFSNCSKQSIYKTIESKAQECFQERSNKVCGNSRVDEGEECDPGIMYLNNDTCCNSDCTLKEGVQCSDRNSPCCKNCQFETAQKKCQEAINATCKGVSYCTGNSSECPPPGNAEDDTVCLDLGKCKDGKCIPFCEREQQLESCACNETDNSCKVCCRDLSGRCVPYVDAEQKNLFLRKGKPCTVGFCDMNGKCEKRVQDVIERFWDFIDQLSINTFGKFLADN
Protocol: (§3) Inhibition assays with TACE and ADAM 10. Activity of TACE catalytic/disintegrin, TACE catalytic, or ADAM10 catalytic/disintegrin constructs was monitored at 3 minute intervals using the fluorescent substrate, Dabcyl-LAQAHomoPheRSC(Fluorescein)-NH2 (SEQ ID NO 17) with excitation 485 nm and emission 530 nm. The substrate was diluted from a 10 mM stock in DMSO to 10 μM in assay buffer containing 20 mM Tris, pH 8.0, and 0.0006% Brij-35. Reactions were run in a 96-well black-coated plate with either ADAM10 prodomain (10 nM-1.0 μM) alone or with enzyme. Concentrations of enzyme ranged from 0.5-2.0 nM for TACE and 5-15 nM for ADAM10. For assays with TACE and ADAM8 prodomain, the range of concentrations varied from 1-4.7 μM.
as §1, §2

TACE (human) Cat = molecular target: T3, TACE (human) Cat (Homo sapiens, UniProt P78536); assay: Inhibition assay with TACE catalytic domain, fluorescent substrate; format: biochemical; details: room temperature; read-out: inhibition constant, TACE (human) Cat
T3 construct: TACE catalytic domain, Marcos Milla, University of Pennsylvania; donated by Marcos Milla, University of Pennsylvania
T3 sequence (P78536 223-474 limits assumed): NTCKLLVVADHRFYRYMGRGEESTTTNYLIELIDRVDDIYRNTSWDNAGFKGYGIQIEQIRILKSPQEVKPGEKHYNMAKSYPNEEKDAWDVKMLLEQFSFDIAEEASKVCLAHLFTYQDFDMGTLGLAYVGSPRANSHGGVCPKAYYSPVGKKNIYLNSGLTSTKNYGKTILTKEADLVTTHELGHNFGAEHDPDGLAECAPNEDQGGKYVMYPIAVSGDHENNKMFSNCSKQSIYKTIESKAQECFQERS
Protocol: as §3, §1, §2

[2] = tested on: CD23 shedding in U937 cells; assay: CD23 release from U937 cells, soluble CD23 ELISA; format: cell-based; details: 150-600 nM, IL-4, 24 hr, FIG. 2B
Protocol: ADAM 10 prodomains were also tested in assays to determine if ADAM 10 protein functions as a CD23 sheddase. Cells (100,000 per well) were seeded in round-bottomed 96-well plates (Sarstedt, Newton, N.C.) in 0.2 ml of media supplemented with IL-4 with inhibitors (A10 23-215 150-600 nM, GM6001 10-50 μM, TAPI-2 10-50 μM, or TIMPs 250 nM) or vehicle controls (A10 23-215 buffer: 25 mM NaH2PO4 pH 7.0, 125 mM KCl, 75 mM NaCl 20% glycerol, PBS, or dimethyl sulfoxide). Cells were cultured for 24 hr. The conditioned medium was harvested by centrifugation (2000×g, 15 min). The conditioned medium was assayed by ELISA for soluble CD23 according to the manufacturers' instructions (BD Biosciences, Invitrogen).

MMP 1, 2, 3, 9, 13, 14 = assay: Inhibition assays with MMPs; format: biochemical
Protocol: Inhibition assays with MMPs. The fluorescent substrate Dabcyl-GPLGMRGC (Fluorescein)-NH2 (SEQ ID NO 18) (10 μM) in assay buffer containing 50 mM Tris, pH 7.5, 150 mM NaCl, 2 mM CaCl2, 5 μM ZnSO4, and 0.01% Brij-35 was used to monitor enzyme activities. MMPs 1, 2, 3, 9, 13, and 14 (0.1-20 nM) were incubated with substrate in the absence or presence of prodomain (3-30 μM). Fluorescence intensities were measured every 3-5 minutes at an emission wavelength of 530 nm (excitation 485 nm).
as §1, §2

[3] = molecular target: T4, mouse ADAM 10 catalytic domain (Mus musculus, UniProt O35598); assay: Inhibition of mouse ADAM 10 catalytic domain (unpublished observation); format: biochemical
T4 construct: mouse ADAM 10 catalytic domain (unpublished observation)
T4 sequence (O35598 221-457 limits assumed): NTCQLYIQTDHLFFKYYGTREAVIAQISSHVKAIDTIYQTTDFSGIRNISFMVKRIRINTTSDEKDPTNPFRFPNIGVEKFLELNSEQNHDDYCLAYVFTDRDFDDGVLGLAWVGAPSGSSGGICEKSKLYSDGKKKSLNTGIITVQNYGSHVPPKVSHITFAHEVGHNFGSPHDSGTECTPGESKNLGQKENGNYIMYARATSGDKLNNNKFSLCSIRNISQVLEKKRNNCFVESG
Protocol: Mechanism of ADAM 10 prodomain inhibition. For metalloproteinases that exist as zymogens, the presence of a cysteine in their prodomains is often necessary for inhibition of catalytic activity. […] For some of the ADAM family members, the cysteine is required for efficient inhibition of the enzyme. Therefore, a test was conducted to determine whether the cysteine in the putative cysteine switch of ADAM10 prodomain affected the potency of inhibition by preparing a C-terminal His tag construct with the only cysteine mutated to serine. […] The wild type prodomains (23-213), containing either the N- or C-terminal His tags, were both efficient inhibitors of ADAM10 (Table II), with inhibition constants of 75 and 48 nM respectively.

B1: C173S ProADAM 10 23-213 (C-terminal His tag): mouse ADAM 10 prodomain 23-213 with cysteine 173 mutated to serine, C-terminal His tag (protein, UniProt O35598 23-213, looked up, variant C173S)
chain: NPLNKYIRHYEGLSYNVDSLHQKHQRAKRAVSHEDQFLLLDFHAHGRQFNLRMKRDTSLFSDEFKVETSNKVLDYDTSHIYTGHIYGEEGSFSHGSVIDGRFEGFIKTRGGTFYIEPAERYIKDRILPFHSVIYHEDDINYPHKYGPQGGSADHSVFERMRKYQMTGVEEGARAHPEKHAASSGPELLRKK
modifications: pro-form C-terminal His tag
notes: mouse ADAM 10 prodomain 23-213 with cysteine 173 mutated to serine, C-terminal His tag
- Ki [1]: > 1000 nM
- Ki (TACE (human) Cat/Dis): > 3000 nM
- Ki (TACE (human) Cat): > 3000 nM
- inhibition of CD23 shedding, U937 cells [2]: about 30%
- inhibition of matrix metalloproteinases 1, 2, 3, 9, 13 and 14 (MMP 1, 2, 3, 9, 13, 14; 3 μM prodomain): not inhibited
- Ki (MMP 1, 2, 3, 9, 13, 14; read-out: inhibition constant, MMP 1, 2, 3, 9, 13, 14): > 2000 nM
- Ki [3]: 17 ± 10 nM
